This is an account of results in patent US20190185564A1 (AGENCY FOR SCIENCE TECHNOLOGY AND RESEARCH, published 2019).

Test [1] has as its target T1, Mouse Tim-3-Fc (mouse, UniProt Q8VIM0).
T1 construct: coupled to human Fc; ELISA coating antigen for the cross-reactivity test; also called mouse TIM-3 coupled to human Fc
In words: ELISA on coated mouse TIM-3-Fc, absorbance 450-670 nm.
Procedure: (§1) After a small-scale induction in HB2151 cells, Fab antibodies were screened by ELISA. […] After extensive washes in PBS Tween-20, Fab-containing supernatants from induction plates were transferred into the ELISA plates in the presence of 7% milk in PBS. After 90 minutes at room temperature under agitation and extensive washes, a goat anti-human Fab antibody coupled to HRP was added. One hour later, plates were washed and TMB substrate added. The reaction was stopped with 1M HCl and optical density measured at 450 nm with a reference at 670 nm. Antibodies giving an absorbance >0.1 were selected as positive.

Test [2] deals with T1, Mouse Tim-3-Fc. Described as above. This is another data set of the same source.
Procedure: as §1

Positions count from the first letter of the chain named. Like-named read-outs stand apart in the source and are kept apart here.

B1: anti-TIM-3 antibody clone G6 (antibody, V domains shown)
VH: QVQLQESGPGLVKPSGTLSLTCAVSGGSISSSNWWSWVRQPPGKGLEWIGEIYHSGSTNYNPSLKSRVTISVDKSKNQFSLKLSSVTAADTAVYYCARVVAVAGTVDYWGQGTLVTVSS
VL: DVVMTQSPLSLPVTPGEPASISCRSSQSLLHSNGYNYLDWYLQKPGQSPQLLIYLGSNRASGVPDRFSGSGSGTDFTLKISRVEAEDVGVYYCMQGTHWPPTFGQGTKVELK
notes: Screened as Fab, and SPR was recorded for 'each candidate Fab'
As for B1, the binding result with Mouse Tim-3-Fc [1] is “no binding”.

B2: anti-TIM-3 antibody clone G7 (antibody, V domains shown)
VH: EVQLVQSGAEVKKPGASVKVSCKASGYTFTSYYMHWVRQAPGQGLEWMGIINPSGGSTSYAQKFQGRVTMTRDTSTSTVYMELSSLRSEDTAVYYCARDQYSSGWYYYGMDVWGQGTTVTVSS
VL: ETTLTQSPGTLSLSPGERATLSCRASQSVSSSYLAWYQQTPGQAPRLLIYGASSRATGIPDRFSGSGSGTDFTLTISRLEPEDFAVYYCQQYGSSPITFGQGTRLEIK
notes: as for B1
On to B2, for which the binding result with Mouse Tim-3-Fc [1] was “no binding”.

B3: anti-TIM-3 antibody clone G9 (antibody, V domains shown)
VH: B2 VH with E1Q, V5Q, Q100L, S103Y, W105F
VL: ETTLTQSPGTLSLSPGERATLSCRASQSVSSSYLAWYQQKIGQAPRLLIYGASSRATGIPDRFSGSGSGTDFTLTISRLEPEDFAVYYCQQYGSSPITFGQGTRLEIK
notes: as for B1
B3: the binding result in the test with Mouse Tim-3-Fc [1] is recorded as “no binding”.

B4: anti-TIM-3 antibody clone A3 (antibody, V domains shown)
VH: QVQLVQSGAEVKKPGASVKVSCKASGYTFTSYYMHWVRQAPGQGLEWMGIINPSGGSTSYAQKFQGRVTMTRDTSTSTVYMELSSLRSEDTAVYYCARSPGVVTALFDYWGQGTLVTVSS
VL: DIQMTQSPSFMSASVGDRVTITCRASQDIGSYLAWYQQKPGKAPKLLIYAASTLQSGVPSRFSGSGSGTDFTLTINSLQPEDFATYYCQQSYSSPPTFGPGTTLEIK
notes: Isolated from a human phage library and screened as Fab; SPR was recorded for 'each candidate Fab'
In the case of B4, the binding result with Mouse Tim-3-Fc [1] is recorded as “no binding”.

B5: anti-TIM-3 antibody clone B10 (antibody, V domains shown)
VH: QVQLQESGPGLVKASETLSLTCTVSGGSIGSSDYYWGWIRQPPGKGLEWIGSIYYSGSTYYNPSLKSRVTMSVDTPNNQFSLKLSSVTAADTAVYYCARGEHRGEFDYWGQGTLVTVSS
VL: EIVLTQSPATLSFSPGERATLSCRASQSVGSYLAWYQQRPGQAPRPLIYDATNRATGIPTRFSGSGSGTDFTLTISSLEPEDFATYYCQHRRTFGRGTKLEIK
notes: as for B1
As for B5, in the test with Mouse Tim-3-Fc [1], the binding result is on record as “no binding”.

B6: anti-TIM-3 antibody clone A11 (antibody, V domains shown)
VH: QVQLQQWGAGLLKPSETLSLTCAVYGGSFSGYYWSWIRQPPGKGLEWIGEINHSGSTNYNPSLKSRVTISVDTSKNQFSLKLSSVTAADTAVYYCARGYVAGFDYWGQGTLVTVSS
VL: QSVVTQPPSVSAAPGQKVTISCSGSSSNIGNNYVSWYQQLPGTAPKLLIYGNNWRPSGIPDRFSGSKSGTSATLAISGLQTGDEADYYCETWDSSLSAGVFGGGTKLTVL
notes: as for B1
For B6, the binding result with Mouse Tim-3-Fc [2] was “no binding”.
